According to the RNAGym collection of RNA variant scans (doi:10.1073/pnas.2313332121):

B1: TPR t1 (parent)
chain: GACCAAUCUGCCCUCAGAGCUCGAGAACAUCUUCGGAUGCAGAGGAGGCAGGCUUCGGUGGCGCGAUAGCGCCAACGUCCUCAACCUCCAAUGCAUCCCACCACAUGAUGAUGCCUGAAGAGCCUUGGUUUUUUG

Variants of: B1
Test: polymerase ribozyme fitness, log enrichment relative to wild type (log ratio); higher = more active; in vitro selection for triplet polymerase activity
Summary of the method: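 Mutant libraries of both subunits of a heterodimeric triplet polymerase ribozyme were PCR-built, transcribed, and selected once in triplicate, with frozen incubation at −7 °C and capture of gel-excised extended constructs on streptavidin beads before RT-PCR. Illumina sequencing of input and output libraries was filtered to genotypes with ≥10 input reads and ≥1 read per output. Fitness is the logarithm of genotype enrichment over wild-type enrichment, using inverse-variance-weighted replicate averages. The logarithm is base 2.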

Compared with A66U G93C C115U U116C, C70A C82A U92C is higher in “polymerase ribozyme fitness (log ratio)” value: -5.96 for the first, -3.72 for the second.

Compared with G69U C89G, G63A A84U C86A U125G is lower in “polymerase ribozyme fitness (log ratio)” value: -0.225 for the first, -2.61 for the second.

Compared with G63U G120U G135U, A66U U125A is higher in “polymerase ribozyme fitness (log ratio)” value: -2.56 for the first, -2.11 for the second.

Going from C64U C82U U109A G120U to A66G U116C, the “polymerase ribozyme fitness (log ratio)” value rises from -6.78 to -2.62.

Going from A66U C85U G117A to G69U C88U, the “polymerase ribozyme fitness (log ratio)” value rises from -4.29 to -0.366.

First: G63U G113A G128U
Second: G69U U87A C97A
The “polymerase ribozyme fitness (log ratio)” value of the first is lower: -4.06 for the first, -2.19 for the second.

Compared with C64G C89U C123U, C64U C99U is higher in “polymerase ribozyme fitness (log ratio)” value: -5.79 for the first, -2.88 for the second.

Going from U67A C123U to G69U G107A, the “polymerase ribozyme fitness (log ratio)” value rises from -5.81 to -3.34.

First: C64U C114U U125A
Second: G63A U106G
The “polymerase ribozyme fitness (log ratio)” value of the first is lower: -2.95 for the first, -2.57 for the second.

First: G63A U106A
Second: G69U A100U
The “polymerase ribozyme fitness (log ratio)” value of the first is lower: -1.29 for the first, -0.417 for the second.

Compared with G69A G93U A111G G122A, C64U U78G is higher in “polymerase ribozyme fitness (log ratio)” value: -5.44 for the first, -0.112 for the second.

Compared with G65U G71A, G63U G110A is higher in “polymerase ribozyme fitness (log ratio)” value: -4.69 for the first, -1.81 for the second.

G63U G110U and A68G U106A are within 0.2 log units of each other in “polymerase ribozyme fitness (log ratio)” value: -3.12 for the first, -3.22 for the second.

Compared with G69U C86U U109A C115G U126A, G69C G120U is higher in “polymerase ribozyme fitness (log ratio)” value: -7.39 for the first, -0.245 for the second.

Going from G63A G122A to G69U C124G, the “polymerase ribozyme fitness (log ratio)” value rises from -1.62 to 1.3.

Going from G69U C124A to A66C U129A, the “polymerase ribozyme fitness (log ratio)” value falls from 1.92 to -2.92.

Compared with C64G U112A, G69U U112G C124A U133C is higher in “polymerase ribozyme fitness (log ratio)” value: -4.73 for the first, 2.87 for the second.

Going from C64G U78C C115A to G63C C79G, the “polymerase ribozyme fitness (log ratio)” value rises from -5.99 to -0.109.

Compared with G69C G122U U130C, C64U G107A is lower in “polymerase ribozyme fitness (log ratio)” value: -1.15 for the first, -3.01 for the second.

Compared with A68G C86U, G69C U92A U109G is lower in “polymerase ribozyme fitness (log ratio)” value: -2.68 for the first, -6.72 for the second.

Going from A66C U130G U133A to G69C G77U U87A G117U, the “polymerase ribozyme fitness (log ratio)” value falls from -1.91 to -5.49.

First: G63C C85U A111C G122C
Second: C70A C80G C82G
The “polymerase ribozyme fitness (log ratio)” value of the first is higher: -3.75 for the first, -7.42 for the second.

Going from A66C G69A to C64A U87A, the “polymerase ribozyme fitness (log ratio)” value falls from -3.84 to -6.3.

Compared with C70A C123A, G69A C89G is lower in “polymerase ribozyme fitness (log ratio)” value: -0.557 for the first, -5.32 for the second.

Going from G69A U116G to G63C C102A, the “polymerase ribozyme fitness (log ratio)” value rises from -4.55 to -2.59.

Going from G63C C101U to G69C U92G G120C, the “polymerase ribozyme fitness (log ratio)” value falls from -1.5 to -3.22.

Going from A66U C114A to A66U A84U C89U U112G, the “polymerase ribozyme fitness (log ratio)” value rises from -3.05 to -2.3.

C64U C70G C79U A111U U112A C124A and G63A C70G C73A are within 0.2 log units of each other in “polymerase ribozyme fitness (log ratio)” value: -5.81 for the first, -5.82 for the second.

Going from G63A G77C A119U to C70A A105C G120C, the “polymerase ribozyme fitness (log ratio)” value falls from -2.08 to -5.66.

Compared with C64U G71U C88U, C70A C88U is higher in “polymerase ribozyme fitness (log ratio)” value: -5.13 for the first, -1.26 for the second.

First: U67G C80G G113A
Second: G63C A90C
The “polymerase ribozyme fitness (log ratio)” value of the first is lower: -6.86 for the first, -2.06 for the second.

Compared with G63C A90U, C64A U78C C123U is lower in “polymerase ribozyme fitness (log ratio)” value: -2.23 for the first, -4.49 for the second.

Going from G69A G110C U129A to G69U G128A, the “polymerase ribozyme fitness (log ratio)” value rises from -7.59 to -1.19.

First: G69A G117A
Second: G69A G117C
The “polymerase ribozyme fitness (log ratio)” value of the first is higher: -3.78 for the first, -5.44 for the second.

Compared with G63A U112C, G63U C94G is lower in “polymerase ribozyme fitness (log ratio)” value: 0.988 for the first, -1.4 for the second.

First: A66U U106A G117A
Second: C64A C73G
The “polymerase ribozyme fitness (log ratio)” value of the first is higher: -2 for the first, -6.34 for the second.

Compared with A66U C98U, G63C C115U is higher in “polymerase ribozyme fitness (log ratio)” value: -1.9 for the first, -1.32 for the second.

First: A66G
Second: A66U
The “polymerase ribozyme fitness (log ratio)” value of the first is higher: -0.466 for the first, -0.954 for the second.

Going from A66C to A66G G77A C94U C115A U132A, the “polymerase ribozyme fitness (log ratio)” value rises from -1.32 to -0.858.

Going from G63C C85G U130G to G63C G113U, the “polymerase ribozyme fitness (log ratio)” value falls from -1.36 to -3.35.

First: G63A G93U C98U A121G
Second: C64U G120A G135A
The “polymerase ribozyme fitness (log ratio)” value of the first is lower: -0.418 for the first, 0.278 for the second.

Compared with G63C U126G, A68G C82U is lower in “polymerase ribozyme fitness (log ratio)” value: -1.74 for the first, -2.87 for the second.
